System: peptide library, one residue held at a place counted from the S/T acceptor
Assay: relative phosphorylation of the sub-library (ratio to the mean residue at this position); higher = residue favoured
Settings: human
Outline: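 Human or orthologue kinase constructs, purified and recombinant, were incubated under kinase-specific conditions in 384-well plates with biotinylated degenerate peptide sub-libraries. Each sub-library fixed one residue at one position around a central Ser/Thr. Incubations lasted 90 min with peptides at 50 μM and 50 μM ATP spiked with γ-32P-ATP, after which spots on streptavidin membranes were phosphorimaged and quantified by densitometry. Relative sub-library phosphorylation is a ratio to the mean residue at that position.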

CAMK2A, construct: Full length, sequence (Q9UQM7 whole entry, looked up): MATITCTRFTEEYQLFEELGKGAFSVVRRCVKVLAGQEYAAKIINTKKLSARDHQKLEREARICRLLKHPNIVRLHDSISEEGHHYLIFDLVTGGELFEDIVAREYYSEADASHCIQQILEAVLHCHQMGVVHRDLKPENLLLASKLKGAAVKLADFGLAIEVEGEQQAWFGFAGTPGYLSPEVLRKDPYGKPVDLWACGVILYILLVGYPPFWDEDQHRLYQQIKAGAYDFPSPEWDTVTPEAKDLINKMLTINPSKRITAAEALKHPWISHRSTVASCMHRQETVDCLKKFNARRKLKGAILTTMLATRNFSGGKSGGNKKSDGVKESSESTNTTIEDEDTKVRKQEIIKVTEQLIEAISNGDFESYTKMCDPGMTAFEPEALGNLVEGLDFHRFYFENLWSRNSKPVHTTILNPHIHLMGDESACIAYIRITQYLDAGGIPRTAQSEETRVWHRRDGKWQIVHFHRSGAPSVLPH
CDK18, construct: Full length, sequence (Q07002 whole entry, looked up): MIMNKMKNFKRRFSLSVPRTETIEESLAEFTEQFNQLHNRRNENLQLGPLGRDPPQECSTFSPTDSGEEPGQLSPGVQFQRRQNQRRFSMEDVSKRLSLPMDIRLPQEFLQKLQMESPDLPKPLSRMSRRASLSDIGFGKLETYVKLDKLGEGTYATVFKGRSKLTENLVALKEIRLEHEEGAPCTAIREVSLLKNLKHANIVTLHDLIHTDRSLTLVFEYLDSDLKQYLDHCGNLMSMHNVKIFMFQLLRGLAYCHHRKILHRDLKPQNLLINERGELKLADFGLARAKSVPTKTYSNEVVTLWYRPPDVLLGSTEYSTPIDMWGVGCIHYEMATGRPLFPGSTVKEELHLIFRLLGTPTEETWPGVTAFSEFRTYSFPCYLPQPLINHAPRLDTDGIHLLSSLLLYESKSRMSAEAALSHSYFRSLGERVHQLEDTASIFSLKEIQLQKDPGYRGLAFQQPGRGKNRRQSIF
CDK1, construct: Full length, sequence (P06493 whole entry, looked up): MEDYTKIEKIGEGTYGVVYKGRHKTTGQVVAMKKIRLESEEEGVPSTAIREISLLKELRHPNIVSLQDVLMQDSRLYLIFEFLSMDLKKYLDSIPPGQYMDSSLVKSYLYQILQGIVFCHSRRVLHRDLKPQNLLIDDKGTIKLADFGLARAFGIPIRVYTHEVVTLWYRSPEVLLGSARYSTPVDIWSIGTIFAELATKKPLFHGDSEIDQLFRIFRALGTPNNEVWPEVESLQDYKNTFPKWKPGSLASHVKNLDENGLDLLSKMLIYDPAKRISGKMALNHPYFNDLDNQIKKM

CAMK2A, construct: Full length (from UniProt Q9UQM7)
relative phosphorylation
Settings	at +1	at +2	at +3	at +4	at -1	at -2	at -3	at -4	at -5
A fixed	0.609	0.742	0.885	0.931	0.81	1.37	0.689	1.08	0.921
D fixed	0.816	5.44	2.48	1.96	1.65	0.692	0.352	0.607	0.452
E fixed	1.32	2.31	2.59	1.81	1.16	0.765	0.464	0.985	0.461
F fixed	2.06	0.382	0.664	0.797	0.567	0.62	0.53	0.867	1.36
G fixed	0.59	0.713	1.11	1.11	0.789	1.02	0.591	0.941	0.758
H fixed	0.848	0.976	1.06	1.1	1.05	0.992	0.978	1.08	1.05
I fixed	1.09	0.334	0.431	0.511	0.374	0.31	0.369	0.656	0.866
K fixed	0.719	0.694	0.803	0.792	1.36	1.21	2.13	1.42	0.793
L fixed	1.09	0.331	0.642	0.513	0.629	0.4	0.378	0.733	1.79
M fixed	1.42	0.387	0.515	0.568	0.753	1.07	0.517	0.96	1.06
N fixed	0.955	1.02	1.06	0.977	1.65	1.09	0.706	0.689	0.618
P fixed	0.594	0.73	1.01	1.55	1.88	0.659	1.13	1.43	1.25
Q fixed	1.41	0.696	0.973	1	1.37	2.96	0.902	1.04	0.747
R fixed	0.735	0.781	0.762	0.557	1.02	1.47	5.38	1.4	1.27
V fixed	1.22	0.44	0.614	0.664	0.527	0.389	0.379	0.776	0.867
W fixed	0.527	0.452	0.634	1.15	0.5	1.21	0.837	1.31	1.59
Y fixed	1	0.574	0.774	1.01	0.905	0.765	0.665	1.02	1.15
pThr fixed	1.89	1.82	2.45	4.37	0.489	0.486	0.496	0.738	0.605
pTyr fixed	1.53	4.53	2.49	2.88	1.8	0.503	0.514	0.804	0.813

CDK1, construct: Full length (from UniProt P06493)
relative phosphorylation
Settings	at +1	at +2	at +3	at +4	at -1	at -2	at -3	at -4	at -5
A fixed	0.334	1.04	0.598	0.854	0.927	1	0.841	0.996	1.04
D fixed	0.205	0.814	0.505	0.941	1.21	1.03	1.26	1.56	1.55
E fixed	0.231	0.724	0.425	0.786	0.927	0.898	1.25	1.38	1.36
F fixed	0.187	0.68	0.396	0.78	0.639	0.853	0.825	0.825	0.882
G fixed	0.717	1.13	0.852	1.1	1.43	1.29	1.31	1.14	1.4
H fixed	0.244	1.18	0.907	1.23	0.744	0.87	1.01	0.908	0.893
I fixed	0.21	0.694	0.346	0.758	0.352	0.669	0.663	0.654	0.751
K fixed	0.331	1.86	5.37	1.83	1.65	0.597	1.01	0.973	1.11
L fixed	0.228	0.752	0.403	0.792	0.62	0.89	0.743	0.69	0.799
M fixed	0.24	0.839	0.423	0.913	0.85	1.04	0.761	0.806	0.759
N fixed	0.299	1.19	0.838	1.12	1.27	0.803	1.11	1.01	0.944
P fixed	12.4	1.04	0.999	1.08	1.61	3.11	1.84	1.49	1.16
Q fixed	0.292	1.16	0.798	1.02	1.22	0.856	0.976	0.922	0.86
R fixed	0.324	1.64	2.82	1.21	1.4	0.649	0.921	1.02	0.934
V fixed	0.295	0.656	0.413	0.695	0.483	0.687	0.705	0.586	0.718
W fixed	0.213	0.769	0.485	0.973	0.758	0.935	0.883	1.05	0.852
Y fixed	0.202	0.842	0.415	0.924	0.897	0.825	0.893	0.985	0.99
pThr fixed	0.851	1.38	1.59	0.946	0.621	1.16	1.3	1.43	1.74
pTyr fixed	0.777	0.913	1.36	1.08	0.885	1.28	1.48	1.42	1.66

CDK18, construct: Full length (from UniProt Q07002)
relative phosphorylation
Settings	at +1	at +2	at +3	at +4	at -1	at -2	at -3	at -4	at -5
A fixed	0.339	0.788	1.01	1.29	1.11	1.37	1.15	1.33	1.04
D fixed	0.148	0.632	0.364	0.521	0.489	0.384	0.605	0.835	0.919
E fixed	0.127	0.377	0.292	0.355	0.348	0.463	0.719	0.823	0.831
F fixed	0.196	0.581	1.03	0.759	0.57	0.705	0.539	0.696	0.844
G fixed	1.13	0.837	0.922	2.23	2.13	1.11	2.12	1.24	1.15
H fixed	0.274	1.23	0.695	1.21	0.987	0.807	1.05	1.02	1.37
I fixed	0.178	0.705	1.03	0.634	0.247	0.72	0.569	0.788	0.804
K fixed	0.316	2.28	0.862	1.33	1.67	0.671	0.937	1.48	1.53
L fixed	0.199	0.877	2.5	0.581	0.561	0.963	0.589	1	1.16
M fixed	0.196	0.901	1.46	0.699	0.934	0.887	0.648	0.718	0.799
N fixed	0.239	1.11	0.806	1.16	1.02	0.777	1.06	1.27	1.12
P fixed	12.4	0.972	2.05	0.831	1.71	3.93	2.29	1.43	1.12
Q fixed	0.279	1.06	1.03	0.969	1.13	0.999	1.03	1.01	0.77
R fixed	0.281	2.23	0.719	1.79	1.9	0.94	1.33	0.941	0.827
V fixed	0.263	0.744	1.04	0.703	0.379	0.852	0.768	0.596	0.677
W fixed	0.236	0.782	0.703	1.09	0.911	0.886	0.852	1.05	1.12
Y fixed	0.184	0.887	0.498	0.845	0.914	0.543	0.748	0.765	0.911
pThr fixed	0.415	0.681	0.949	0.372	0.316	0.823	0.982	0.951	0.78
pTyr fixed	0.508	0.48	0.815	0.591	0.341	0.572	0.943	0.82	1.07
